From publication PMC6235870 come the findings set out here.

Usually koff stands for a measure of how fast the partners let go of each other. The low end stands for a long-lived complex, the high end for a short-lived complex. A word on the kon: it is the second-order rate constant of association. High values mean fast association, low ones slow association. Broadly, the stoichiometry N is the number of molecules, sites or subunits per partner or assembly.

Assay [1] deals with CTD of MaSp1 from E. australis modified at C82 with AttoOxa11 (Euprosthenops australis). The assay is described as follows: fluorescence chasing experiment (dissociation kinetics); 60, 120 and 180 nM CTD-AttoOxa11 dimers chased with 20 µM chemically reduced wild-type CTD, manual mixing, 298 K, emission at 677 nm; bi-exponential fit; dimer to monomers.
Assay [2] shares this target. The assay is described as follows: stopped-flow fluorescence spectroscopy (refolding and dimerisation of denatured monomers); sub-µM CTD-AttoOxa11 in 8 M urea mixed 1:10 into 50 mM phosphate pH 7.0, ionic strength 200 mM (KCl), 298 K; denatured monomers to dimeric intermediate I2.
In assay [3] the target is C-terminal domain (CTD) of major ampullate spidroin 1 (MaSp1) from Euprosthenops australis, wild type (Euprosthenops australis). The experiment in a line: far-UV CD equilibrium chemical denaturation at varying protein concentration; urea 0-10 M, CD at 222 nm, 5-30 µM CTD, 50 mM phosphate pH 7.0, ionic strength 200 mM (KCl), 298 K, reducing (1 mM DTE); three-state model N2-I2-D; dimeric intermediate to denatured monomers.

For the substance “CTD of MaSp1 from E. australis modified at C82 with AttoOxa11 (domain or fragment)”, in assay [1], the koff is 0.008 s⁻¹; the observed time constant of dissociation, first exponential, 60 nM stood at 51 s; the observed time constant of dissociation, first exponential, 120 nM is 37 s; the observed time constant of dissociation, first exponential, 180 nM was 34 s. Also, in assay [1], the observed time constant of dissociation, second exponential, 60 nM worked out at 208 s; the observed time constant of dissociation, second exponential, 120 nM came to 186 s; the observed time constant of dissociation, second exponential, 180 nM came to 194 s; the time constant of dissociation (mean weighted by amplitudes) is 128 s. In assay [2], this substance registered a kon of 5.2e+07 M⁻¹ s⁻¹.

“C-terminal domain (CTD) of major ampullate spidroin 1 (MaSp1) from Euprosthenops australis, wild type (domain or fragment)” had a stoichiometry N in assay [3] of 2.
